Experimental data: the supplement of paper PMC9170038

Test system: MS2 coat protein
Experiment: apparent KD of MS2 coat protein; designed switch direction (-1 OFF switch, 1 ON switch): -1; higher = weaker reporter binding
Method in brief: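 RNA switches sharing common flanks were transcribed by stalled E. coli RNA polymerase on Illumina chips. A doubling series of SNAP-549-labelled MS2 coat protein, from 0.7 or 1.5 nM to 3 µM, was applied in Tris-HCl pH 7.5 buffer with KCl, MgCl2, BSA, DTT, tRNA and Tween-20. Each step lasted 0.8–1.5 h at the bottom of the series and 10–20 min at the top. Normalised cluster fluorescence was curve-fitted, giving apparent KD as the per-design median over clusters.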

[1] = input ligand: microRNA oligo, concentration not stated
[2] = Eterna round: R95, input ligand: FMN 200 uM
[3] = Eterna round: R95, input ligand: microRNA oligo, concentration not stated
[4] = Eterna round: R95, input ligand: none

Sequence	apparent KD of MS2 coat protein (input ligand: FMN 200 uM) [nM]	apparent KD of MS2 coat protein [1] [nM]	apparent KD of MS2 coat protein (input ligand: none) [nM]	apparent KD of MS2 coat protein [2] [nM]	apparent KD of MS2 coat protein [3] [nM]	apparent KD of MS2 coat protein [4] [nM]
UGAGUGCUGCGAGGAUAUACAUGAGGAUCACCCAUGUGGUCCUGUGAGGCAAAGCCUCACAGGAUGUAGAAGGCGCAGUACUCU [Mat - Exclusion NG 2 - Mod of JL - D45] (Eterna round: R96, puzzle: Exclusion NG 2)	95.2	13.7	22.5	–	–	–
UGAGUGCUGCGAGGAUAUACAUGAGGAUCACCCAUGUUUACCUGUGAGGCUUUGCCUCACAGGUUGUAGAAGGCGCAGUACUCU [JL ENG2 1.15] (Eterna round: R96, puzzle: Exclusion NG 2)	10.2	9.11	12.4	–	–	–
UGAUCACAUGAGGAUCACCCAUGUCAGGAUAUCGUCACUGGAGCUGCGGCUCCAGUGACGAGAAGGGACAUAAU [E1/3-A3] (Eterna round: R97, puzzle: Exclusion 1)	50.8	–	242	–	–	–
UGAUCAGACCGAGGAUAUACAUGUAGGACGCACGUGAGUGCGUCCAGUACAUGAGGAUCACCCAUGUAGAAGGCGGUCUGAUCU [JL ENG2 1.95] (Eterna round: R96, puzzle: Exclusion NG 2)	309	78.2	76.1	–	–	–
UGAUCUAGGCGAGGAUAUACAUGAGGAUCACCCAUGUAAGCGUGACAUGGAAACAUGUCACGUAUGUAGAAGGCGCCUAGAUCU [MOD ENG2 3.54 by JL] (Eterna round: R96, puzzle: Exclusion NG 2)	–	8.6	13.3	–	–	–
UGAUUGUUUAACAGAUUAUACAUGAGGAUCACCCAUGUAGGUCCUACGUGCACAUUAUGCAGCUCGUCUUAUUCCCA [Sensor-V1 #72] (Eterna round: R97, puzzle: Sensor, turn-off variant 1)	35.5	–	37.3	–	–	–
UGCAGACGAGGAUAUAAAUUUGAUAACAUGAGGAUCACCCAUGUGAUCGAUAGAUCAAAUUUAGAAGGCGUCUGCU [E5/7-A3] (Eterna round: R97, puzzle: Exclusion 5)	541	–	519	–	–	–
UGCCCAGCAGGAUAUACAUGAGGAUCACCCAUGUCGAUUCAGUACGACUUAGUGCAACGUAGAAGGGCUGGGCC [Eternabot (L1) Solution 84] (Eterna round: R97, puzzle: Exclusion 3)	405	–	39.5	–	–	–
UGCCUAGCAGGAUAUGCCCGGGAUAACAUGAGGAUCACCCAUGUGACCGAUUGAUAUCCUGCAGAAGGGCUAGGGA [JL-EX5-4.10 ViennaUCT mod] (Eterna round: R97, puzzle: Exclusion 5)	62.1	–	16.7	–	–	–
UGCUAGUCAGGAUAUACGAACAUGUCAAAAGACGUGAAGGGACAUGAGGAUCACCCAUGUAGAAGGGACUAGCA [salish99_ex2_r3_005] (puzzle: Exclusion 2)	–	–	–	158	27.1	23.9
UGGCUACAUGAGGAUCACCCAUGUCAGGAUAUGCCGUUAAAUUAACAUCAACAUACGGGUAGAAGGGACAGCGU [1st #6] (Eterna round: R97, puzzle: Exclusion 1)	43.5	–	41.7	–	–	–
UGGCUACAUGAGGAUCACCCAUGUCAGGAUAUGCCGUUAAAUUGACAUCAACGUACGGGUAGAAGGGACUGCGU [1st #8] (Eterna round: R97, puzzle: Exclusion 1)	43.2	–	45.6	–	–	–
UGGUAACAUGAGGAUCACCCAUGUCAGGAUAUCAGUAAGAAGAGAUUAGAUUAGAAUAUGAGAAGGGACUAUAG [Excluse me! 2 - Jieux - Exclusion 1] (puzzle: Exclusion 1)	–	–	–	30.1	40.3	37.8
UGGUAACAUGAGGAUCACCCAUGUCAGGAUAUCAGUAAGAAUAGAUUAGAUUAGAAUAUGAGAAGGGACUAUAG [Excluse me! 3 - Jieux - Exclusion 1] (puzzle: Exclusion 1)	–	–	–	38.5	38.9	47.8
UGGUGGAAGCAGGAUAUGCUAGAAGUGUAGUUUGCAGAAGGGCUAACAUGAGGAUCACCCAUGUAAGAGGUGUU [JR_E6_Sub053] (puzzle: Exclusion 6)	–	–	–	94.2	211	290
UGUACUAACACGAAAGUGUUAGUACAAUAAGCUUGUGUUACAUGAGGAUCACCCAUGUCCUCAUAAGCUCGUCUUAU [Mat - Sensor v3 - Turn-off var 2 - D51] (puzzle: Sensor v3, turn-off variant 2)	–	–	–	88.2	52.3	99.2
UGUCAGAUGGUAGGAUAUCCAUAUCGAGUGUCCCUUUCCUAACAUGAGGAUCACCCAUGUCGGUGGGAGAAGGGCCGUAUGGUG [salish99_ExNG02_R04_034] (Eterna round: R96, puzzle: Exclusion NG 2)	12.5	11.5	14.1	–	–	–
UGUCAGAUGGUAGGAUAUUCAUAUCGAGUGACCCUUUCAUAACAUGAGGAUCACCCAUGUCGGUGGGAGAAGGGCCGUAUGGUG [salish99_ExNG02_R04_030] (Eterna round: R96, puzzle: Exclusion NG 2)	–	22.7	–	–	–	–
UGUGUCUCAGGAGGAUAUCUCUCGGUUGCCGUUAGAGAAGGCUUGAAACAUGAGGAUCACCCAUGUAAAUGGCCCGUCCUCCAA [Lalecetege] (Eterna round: R96, puzzle: Exclusion NG 1)	12.2	11.3	14.1	–	–	–
UGUGUGUUUGUGAGGAUAUUGUGUGUGAAAGCGCGCGAGAAGGCACAUGAGGAUCACCCAUGUAAGGGCGCGCG [-26, -24 kcal, A 23%, 6bis-6] (Eterna round: R97, puzzle: Brourd's mod of Exclusion 4)	20.2	–	23	–	–	–
UGUGUUUUUGUGAGGAUAUACUGUUUGUUUUGUUUGUAGAAGGUACAUGAGGAUCACCCAUGUUGUGUUUGGUU [JR_BME4_Sub032] (puzzle: Brourd's mod of Exclusion 4)	–	–	–	–	30.9	–
UGUUGUCGCGCAGGAUAUGAGGAUCACCCAUAUCAGGAUAUCGAAAGAGAAUUUCUGAGGAUCACCCAGAAGGGCGGGACAACU [pwkr exNG2 2xF5 2xFMN.34] (Eterna round: R96, puzzle: Exclusion NG 2)	210	35.6	42.9	–	–	–
UGUUGUCGCGUAGGAUAUGUAUGAGGAUCACCCAUUAAUAAAUUUUAACCACGAGGAUCACCCGUGUAGAAGGACGGGACAACA [pwkr exNG2 2xF5 1xFMN.16] (Eterna round: R96, puzzle: Exclusion NG 2)	37.9	18.1	30.6	–	–	–
UGUUGUUACGUAGGAUAUUGCCAACAGGCAGUAGGAUAUGCGAAAGCAGAAGGACCGCCAACAGGCGAGAAGGACGGGUUAACA [pwkr exNG2 2xF7 2xFMN.11] (Eterna round: R96, puzzle: Exclusion NG 2)	286	31.5	389	–	–	–
UGUUUACAUGAGGAUCACCCAUGUCAGGAUAUGAUAUAUAUAUGGAAACAUAUAUAUAUCAGAAGGGACUAGUG [Jieuxxlusion 1 - Jieux - Exclusion 1] (Eterna round: R97, puzzle: Exclusion 1)	156	–	87.7	–	–	–
UGUUUAUAUGAAGGAUAUACUUAACAUGAGGAUCACCCAUGUGGUGUUGUGAGUGAGUGAGUUUAGUAGAAGGUCAAUUAUUUU [JMF's solution 31] (Eterna round: R96, puzzle: Exclusion NG 2)	–	303	–	–	–	–
UUAAAGUCAGGAUAUACAUGAGGAUCACCCAUGUAAAAUUUUAAUUUAAUUUGAAGGUGUAGAAGGGACAAAUU [Ex3 #36] (Eterna round: R97, puzzle: Exclusion 3)	25.6	–	26	–	–	–
UUAAAGUCAGGAUAUACAUGAGGAUCACCCAUGUAAAAUUUUAAUUUAAUUUUAAGGUGUAGAAGGGACAAUUU [Ex3 #2] (Eterna round: R97, puzzle: Exclusion 3)	29.8	–	31.1	–	–	–
UUAAAUCAUGUAGGAUAUGCAUAGCGAAGCUAUGCAGAAGGACAUGAGGAUCACCCAUGUGCUUGCGUCCGCGUACGGAUGCUA [Mat - Exclusion NG 1 - Mod of JL - D67] (Eterna round: R96, puzzle: Exclusion NG 1)	423	84.4	123	–	–	–
